In publication PMC6078178 (Nature, 2017):
One block for each binder: values may come before it.

B1: Rpb4 (Pol II stalk subunit) (natural protein, S. cerevisiae)
chain: MNVSTSTFQTRRRRLKKVEEEENAATLQLGQEFQLKQINHQGEEEELIALNLSEARLVIKEALVERRRAFKRSQKKHKKKHLKHENANDETTAVEDEDDDLDEDDVNADDDDFMHSETREKELESIDVLLEQTTGGNNKDLKNTMQYLTNFSRFRDQETVGAVIQLLKSTGLHPFEVAQLGSLACDTADEAKTLIPSLNNKISDDELERILKELSNLETLY
B3: Tfb3 (natural protein, S. cerevisiae, UniProt Q03290 1-321, looked up)
chain: MLMDEYEENKDMCPICKTDRYLSPDVKFLVNPECYHRICESCVDRIFSLGPAQCPYKGCDKILRKNKFKTQIFDDVEVEKEVDIRKRVFNVFNKTIDDFNGDLVEYNKYLEEVEDIIYKLDHGIDVAKTEEKLRTYEELNKQLIMNNLERSRTEIESFEQRQKFEKEMKLKKRLLERQIEEEERMNKEWTKKEIVNRLSTTTQDINETIEGVKNTVKLKKSSARRKLEELNRVLKNNPYFNSNVNVQNSRLKDAVPFTPFNGDREAHPRFTLKGSVYNDPFIKDLEHRKEFIASGFNTNYAYERVLTEAFMGLGCVISEEL

How the values were obtained:
Med8 = target: T1, Med8 (S. cerevisiae, UniProt P38304 1-223); experiment: cryo-EM structure
T1 sequence (looked up): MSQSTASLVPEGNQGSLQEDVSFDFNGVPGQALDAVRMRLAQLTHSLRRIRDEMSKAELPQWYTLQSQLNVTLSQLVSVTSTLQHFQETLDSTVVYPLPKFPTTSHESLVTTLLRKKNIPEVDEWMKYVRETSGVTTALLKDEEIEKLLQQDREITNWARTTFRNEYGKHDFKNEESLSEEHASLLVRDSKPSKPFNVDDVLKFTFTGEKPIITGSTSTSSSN

Tfb3 = target: B3; experiment: cryo-EM structure
TFIIE (Tfa1 and Tfa2) = target: T2, TFIIE (Tfa1 and Tfa2) (S. cerevisiae, UniProt P36100 1-482; P36145 1-328); experiment: cryo-EM structure
T2 sequence (looked up) 1: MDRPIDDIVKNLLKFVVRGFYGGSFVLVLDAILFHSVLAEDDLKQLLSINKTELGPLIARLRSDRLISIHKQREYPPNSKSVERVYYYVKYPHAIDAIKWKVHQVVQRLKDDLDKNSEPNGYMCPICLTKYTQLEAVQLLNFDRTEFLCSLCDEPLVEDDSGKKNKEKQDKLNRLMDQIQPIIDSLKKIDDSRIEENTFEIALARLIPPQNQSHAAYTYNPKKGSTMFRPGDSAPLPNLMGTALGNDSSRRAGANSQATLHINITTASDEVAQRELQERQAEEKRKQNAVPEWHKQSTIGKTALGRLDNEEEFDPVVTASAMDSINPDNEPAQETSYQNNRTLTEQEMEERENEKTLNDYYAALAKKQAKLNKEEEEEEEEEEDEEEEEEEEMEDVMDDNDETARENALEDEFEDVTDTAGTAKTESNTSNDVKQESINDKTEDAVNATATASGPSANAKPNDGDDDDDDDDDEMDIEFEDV
T2 sequence (looked up) 2: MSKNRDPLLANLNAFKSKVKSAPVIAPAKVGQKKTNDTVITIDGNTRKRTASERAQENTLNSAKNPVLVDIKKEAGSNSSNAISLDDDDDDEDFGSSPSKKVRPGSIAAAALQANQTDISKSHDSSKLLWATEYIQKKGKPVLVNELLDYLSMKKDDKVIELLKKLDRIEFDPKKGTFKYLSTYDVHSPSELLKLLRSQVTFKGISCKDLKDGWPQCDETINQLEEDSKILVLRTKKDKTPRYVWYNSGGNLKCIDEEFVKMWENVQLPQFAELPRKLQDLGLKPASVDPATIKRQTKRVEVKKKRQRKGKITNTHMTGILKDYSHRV

[1] = target: B1; experiment: cryo-EM structure
Tfb2 = target: T3, Tfb2 (S. cerevisiae, UniProt Q02939 1-513); experiment: cross-linking
T3 sequence (looked up): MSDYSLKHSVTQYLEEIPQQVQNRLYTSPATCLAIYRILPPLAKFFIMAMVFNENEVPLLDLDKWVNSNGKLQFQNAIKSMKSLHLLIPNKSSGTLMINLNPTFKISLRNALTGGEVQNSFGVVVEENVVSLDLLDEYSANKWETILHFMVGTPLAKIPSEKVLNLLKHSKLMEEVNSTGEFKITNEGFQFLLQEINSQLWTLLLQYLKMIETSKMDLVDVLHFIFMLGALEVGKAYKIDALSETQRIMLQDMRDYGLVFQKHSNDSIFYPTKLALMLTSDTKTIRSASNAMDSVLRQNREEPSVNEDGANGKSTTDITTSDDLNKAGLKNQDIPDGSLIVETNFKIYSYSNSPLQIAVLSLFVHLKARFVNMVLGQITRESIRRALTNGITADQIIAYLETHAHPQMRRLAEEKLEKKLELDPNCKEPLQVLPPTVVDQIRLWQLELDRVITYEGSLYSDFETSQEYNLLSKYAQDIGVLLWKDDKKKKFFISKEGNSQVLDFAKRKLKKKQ

Tfb1 = target: T4, Tfb1 (S. cerevisiae, UniProt P32776 1-642); experiment: cryo-EM structure
T4 sequence (looked up): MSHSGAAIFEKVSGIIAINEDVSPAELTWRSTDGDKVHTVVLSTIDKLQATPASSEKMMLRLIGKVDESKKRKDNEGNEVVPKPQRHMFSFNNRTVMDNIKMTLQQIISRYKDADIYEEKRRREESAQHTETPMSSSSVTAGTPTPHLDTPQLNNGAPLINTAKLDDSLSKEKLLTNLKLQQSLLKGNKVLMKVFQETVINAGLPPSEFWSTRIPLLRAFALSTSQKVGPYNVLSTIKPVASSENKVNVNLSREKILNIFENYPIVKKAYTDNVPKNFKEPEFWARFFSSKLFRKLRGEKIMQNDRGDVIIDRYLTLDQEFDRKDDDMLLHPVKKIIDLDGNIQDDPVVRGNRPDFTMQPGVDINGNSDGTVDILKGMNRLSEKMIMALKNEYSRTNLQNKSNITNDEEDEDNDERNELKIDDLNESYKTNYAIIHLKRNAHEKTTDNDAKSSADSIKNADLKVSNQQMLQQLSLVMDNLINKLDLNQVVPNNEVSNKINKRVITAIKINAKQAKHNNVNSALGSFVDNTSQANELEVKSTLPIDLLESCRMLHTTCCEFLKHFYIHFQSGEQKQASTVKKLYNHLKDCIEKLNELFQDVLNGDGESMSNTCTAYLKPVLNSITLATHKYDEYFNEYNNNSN

Ssl2 = target: T5, Ssl2 (S. cerevisiae, UniProt Q00578 1-843); experiment: cryo-EM structure
T5 sequence (looked up): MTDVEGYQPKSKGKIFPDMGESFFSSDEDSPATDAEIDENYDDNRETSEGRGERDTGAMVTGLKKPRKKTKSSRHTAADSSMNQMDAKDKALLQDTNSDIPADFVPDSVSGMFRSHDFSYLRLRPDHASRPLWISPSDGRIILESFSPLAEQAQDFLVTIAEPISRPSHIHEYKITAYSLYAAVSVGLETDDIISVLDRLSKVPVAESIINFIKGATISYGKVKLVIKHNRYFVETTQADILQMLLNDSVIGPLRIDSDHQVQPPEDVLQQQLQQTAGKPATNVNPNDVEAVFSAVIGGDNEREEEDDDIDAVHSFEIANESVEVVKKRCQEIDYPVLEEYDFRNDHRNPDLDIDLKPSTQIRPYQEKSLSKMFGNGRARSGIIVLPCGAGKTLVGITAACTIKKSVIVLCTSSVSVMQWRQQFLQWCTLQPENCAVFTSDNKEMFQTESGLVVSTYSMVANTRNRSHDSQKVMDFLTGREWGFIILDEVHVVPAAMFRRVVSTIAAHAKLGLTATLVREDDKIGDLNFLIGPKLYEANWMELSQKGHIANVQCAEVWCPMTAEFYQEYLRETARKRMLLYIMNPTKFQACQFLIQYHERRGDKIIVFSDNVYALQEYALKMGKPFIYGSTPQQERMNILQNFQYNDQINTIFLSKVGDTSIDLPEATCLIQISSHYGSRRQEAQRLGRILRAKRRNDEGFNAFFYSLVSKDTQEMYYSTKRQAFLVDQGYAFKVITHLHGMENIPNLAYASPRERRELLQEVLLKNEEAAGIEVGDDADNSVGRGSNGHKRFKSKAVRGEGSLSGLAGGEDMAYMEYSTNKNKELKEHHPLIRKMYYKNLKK

Binder: B1
binding result (Med8): binds

binding result (Tfb3): binds
B2: Rpb7 (Pol II stalk subunit) (natural protein, S. cerevisiae, UniProt P34087 1-171, looked up)
chain: MFFIKDLSLNITLHPSFFGPRMKQYLKTKLLEEVEGSCTGKFGYILCVLDYDNIDIQRGRILPTDGSAEFNVKYRAVVFKPFKGEVVDGTVVSCSQHGFEVQVGPMKVFVTKHLMPQDLTFNAGSNPPSYQSSEDVITIKSRIRVKIEGCISQVSSIHAIGSIKEDYLGAI

Binder: B3
binding result (TFIIE (Tfa1 and Tfa2)): binds

binding result [1]: binds
B4: Med22 (natural protein, S. cerevisiae, UniProt P32570 1-121, looked up)
chain: MSNQALYEKLEQTRTILSVKLAELINMTTIADRNDDDEGSFAQENSELAVATTSVMMVNNQTMQLIKNVQDLLILTRSIKEKWLLNQIPVTEHSKVTRFDEKQIEELLDNCIETFVAEKTT

binding result (Tfb2): binds
binding result (Tfb1): binds
binding result (Ssl2): binds
B5: Tfa1 (TFIIE subunit) (natural protein, S. cerevisiae, UniProt P36100 1-482, looked up)
chain: MDRPIDDIVKNLLKFVVRGFYGGSFVLVLDAILFHSVLAEDDLKQLLSINKTELGPLIARLRSDRLISIHKQREYPPNSKSVERVYYYVKYPHAIDAIKWKVHQVVQRLKDDLDKNSEPNGYMCPICLTKYTQLEAVQLLNFDRTEFLCSLCDEPLVEDDSGKKNKEKQDKLNRLMDQIQPIIDSLKKIDDSRIEENTFEIALARLIPPQNQSHAAYTYNPKKGSTMFRPGDSAPLPNLMGTALGNDSSRRAGANSQATLHINITTASDEVAQRELQERQAEEKRKQNAVPEWHKQSTIGKTALGRLDNEEEFDPVVTASAMDSINPDNEPAQETSYQNNRTLTEQEMEERENEKTLNDYYAALAKKQAKLNKEEEEEEEEEEDEEEEEEEEMEDVMDDNDETARENALEDEFEDVTDTAGTAKTESNTSNDVKQESINDKTEDAVNATATASGPSANAKPNDGDDDDDDDDDEMDIEFEDV
